One data set concerns the target His-p65 (UniProt Q04206). The experiment in a line: SPR. The settings on record: SPR: 10 mM HEPES, 150 mM NaCl, 3 mM EDTA, 0.05% P20, pH not stated, room temp, EMSA: 10 mM Tris-HCl pH 7.5, 10 mM NaCl, 40 mM KCl, 1 mM MgCl2, 1 mM EDTA. (In general: A gel shift assay detects complexes by their altered migration in electrophoresis.)
Another data set has as its target T1, His-TonEBP sNT (UniProt O94916 1-548).
T1 sequence: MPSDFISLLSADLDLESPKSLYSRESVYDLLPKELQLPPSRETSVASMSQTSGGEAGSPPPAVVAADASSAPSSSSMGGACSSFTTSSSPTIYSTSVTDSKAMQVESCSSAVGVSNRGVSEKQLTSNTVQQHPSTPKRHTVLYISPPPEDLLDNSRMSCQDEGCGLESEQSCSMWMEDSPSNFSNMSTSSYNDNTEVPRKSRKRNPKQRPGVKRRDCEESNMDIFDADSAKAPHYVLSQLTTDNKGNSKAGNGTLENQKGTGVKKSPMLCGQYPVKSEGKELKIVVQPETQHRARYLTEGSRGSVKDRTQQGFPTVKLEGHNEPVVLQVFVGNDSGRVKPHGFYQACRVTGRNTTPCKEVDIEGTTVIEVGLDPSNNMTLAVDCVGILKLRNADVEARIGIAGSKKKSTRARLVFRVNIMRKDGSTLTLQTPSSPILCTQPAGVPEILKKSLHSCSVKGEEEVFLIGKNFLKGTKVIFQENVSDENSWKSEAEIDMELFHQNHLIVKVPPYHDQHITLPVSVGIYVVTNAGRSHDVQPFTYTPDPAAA
Nature of the data set: SPR; SPR: 10 mM HEPES, 150 mM NaCl, 3 mM EDTA, 0.05% P20, pH not stated, room temp; EMSA: 10 mM Tris-HCl pH 7.5, 10 mM NaCl, 40 mM KCl, 1 mM MgCl2, 1 mM EDTA, 1 mM DTT, 50 ug/mL BSA, 100 nM probe, 25 min room temp, 0.8% agarose. The settings on record: protein: recombinant; tags: N-terminal His; chain copies: 2; label: biotin (SPR), 5' end of strand 1 as printed; text says dsDNA, only one strand given. Background: Surface plasmon resonance follows binding to a sensor surface in real time, without labels.

What is called Kd is the constant that tells how readily two partners part at equilibrium.

Sequence of His-p65 (Q04206 whole entry): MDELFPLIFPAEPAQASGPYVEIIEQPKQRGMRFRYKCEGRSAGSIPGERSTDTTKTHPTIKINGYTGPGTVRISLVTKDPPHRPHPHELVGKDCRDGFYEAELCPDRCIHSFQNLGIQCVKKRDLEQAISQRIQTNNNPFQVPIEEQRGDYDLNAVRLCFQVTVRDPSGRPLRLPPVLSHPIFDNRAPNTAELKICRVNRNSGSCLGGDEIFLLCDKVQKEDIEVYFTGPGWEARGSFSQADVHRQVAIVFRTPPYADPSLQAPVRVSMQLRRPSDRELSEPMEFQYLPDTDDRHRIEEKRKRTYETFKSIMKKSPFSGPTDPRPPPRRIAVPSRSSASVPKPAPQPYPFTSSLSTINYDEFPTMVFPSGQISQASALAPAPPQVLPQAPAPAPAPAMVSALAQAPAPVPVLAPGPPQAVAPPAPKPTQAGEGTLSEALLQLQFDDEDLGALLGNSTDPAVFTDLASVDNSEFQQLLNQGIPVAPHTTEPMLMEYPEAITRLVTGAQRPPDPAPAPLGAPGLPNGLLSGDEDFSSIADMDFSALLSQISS

For the molecule “AATGTAAGTGGGAAATTCCTCTGAATA (double strand) [Probe p65]”, in the data set with His-p65, the equilibrium dissociation constant (Kd) came out at 35.2 nM.
As for “ATAGGAAAACTGAAAGGGAGAAGTGAAAGTGGGAAATTCC (double strand) [Probe IRF3/p65]”, the Kd with His-p65 came to 11.5 nM.

B1: Probe IRF3/p65 (dsDNA)
DNA 1: ATAGGAAAACTGAAAGGGAGAAGTGAAAGTGGGAAATTCC
DNA 2: GGAATTTCCCACTTTCACTTCTCCCTTTCAGTTTTCCTAT
B1: in the data set with His-TonEBP sNT, the dissociation constant Kd came to 31.3 nM.

B2: Probe p65 (dsDNA)
DNA 1: AATGTAAGTGGGAAATTCCTCTGAATA
DNA 2: TATTCAGAGGAATTTCCCACTTACATT
In the case of B2, in the data set with His-TonEBP sNT, the Kd was 84.7 nM.

Source of the values: PMC11476177.
